Experimental data as given in the RNAGym collection of RNA variant scans (doi:10.1073/pnas.2313332121).
This sample holds only a part of the variants without activity.

B1: TPR 5TU (parent)
chain: GGAUCUUCUCGAUCUAACAAAAAAGACAAAUCUGCCACAAAGCUUGAGAGCAUCUUCGGAUGCAGAGGCGGCAGCCUUCGGUGGCGCGAUAGCGCCAACGUUCUCAACUAUGACACGCAAAACGCGUGCUCCGUUGAAUGGAGUUUAUCAUG

Variants of: B1
Test: polymerase ribozyme fitness, log enrichment relative to wild type (log ratio); higher = more active; in vitro selection for triplet polymerase activity
Procedure, shortened: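 In triplicate, a single round of in vitro selection was run on each mutant library, PCR-built and transcribed, covering one subunit of a heterodimeric triplet polymerase ribozyme. Frozen incubation at −7 °C followed annealing with a biotinylated primer, partner subunit and triplets, and extended constructs were then gel-excised, streptavidin-captured and taken through RT-PCR. Fitness is the logarithm of genotype enrichment over wild-type enrichment, from inverse-variance-weighted replicate averages of Illumina-sequenced inputs and outputs. […] only genotypes with ≥10 input reads and ≥1 read per output were kept.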

| Variant | polymerase ribozyme fitness (log ratio) |
| --- | --- |
| GGAUGUUCUCGUUCUAACAAAAAAGAGAAAUCUGCCACAAAGCUUGAGCGCAUUUUCGGAAGCAGAGGCGGCAGCCUUCGGUGGCGCGAUAGGGACAACGUUCUCAACUAUGACACGCGAAACGCGUGCUCCGAUGAAUGGAGUUUAUCCUG [C5G A12U C27G A49C C54U U61A C93G C95A A119G U134A A150C] | ≤ -4.2 |
| GGAUGUUCUCGAUCUAACAAGAAAGACAAAUCUGCCACAAAGCUUGAGAGCAUCUUGGGAUGCAGAGGCGGCAGCCUUCGGUGGCGCGAUAGUGCCAACGUUCUCAACUAUGACUCGCAAAACGCGUGCUCCGUUGAAUGGAGUUUAUCAUG [C5G A21G C57G C93U A115U] | -3.31 |
| GGAUAUUCUCGAUCUAACAAAAAAGACAAAUCUGCCACAAAGCUUGAGAGCAUCUUCCGGUGCAGAGGCGGCAGCCUUCGGUGGCGCGAUAACGCCAACGUUCUCAACUAUGACACGCAAUACGCGUGCUCCGUUGAAUGGAGUUUAUCAUG [C5A G58C A60G G92A A121U] | -1.56 |
| GGAUAUUCUCGAUCUAACAAAAAAGACAAACCUGCAACAAAGCUUGAGAGCAUCUUCGGAUCCAGGGGCGGCAGCCUUCGGUGGGGCGAUAGCGCCAACGUUCACAACUAUGACACGCAAAACGCGUGCUCCGUUGAAUGGAGUUUAUCAUG [C5A U31C C36A G62C A66G C85G U104A] | ≤ -4.2 |
| GGAUGUUCUCGAUCUAGCAAAAAAGACAAAUCUGCCACAAAGCUUGAGAGCAUCUUCGGAAGCAGAAGCGGCAGCCUUCGGUGGCGCGAUAGAGUCAACGUUCUCAACUAUGACACGCAAAACGCGUGCUCCGUUGAAUUGAGUUUAUCAUG [C5G A17G U61A G67A C93A C95U G140U] | ≤ -4.2 |
| GGAUAUUCUCGAUCUAACAAAAAAGACAAAUCUGCCACAAAGCUUGAGAUCAUCUUCGGAUGCAGAGGCGGCAGCCUUCGGUGACGCGAUAGCGCCAACGUUCUCAACUAUGACACGCAAAACGCGUGCUCCGUAGAAAGCAGUUUAUCAUG [C5A G50U G84A U135A U139A G141C] | ≤ -4.2 |
| GGAUGUUCUCGAUCUAACAAAAACGACCAAUCUGCCACAAAGCUUGAGAGCAUCGUCAGAUGUAGAGGCGGCAGCCUUCGGUGGCGCGAUAGCGCCAACGUUCUGAACUAUGACACGCAAAACGCGUGCUCCGUUGGAUGGAGUUUAUCAGG [C5G A24C A28C U55G G58A C63U C105G A137G U151G] | ≤ -4.2 |
| GGAUAUUCUCUAUCUAACAACAAAGACAAAUCUGCCACAAAGCUUGAGAGCAUUUUAGGAUGCAGAGGCGGCAGCCUUCGGUGGCGUGAUAGCGCCAACGUUCUCAACUAUGACACGCAAAACGCGUGCUCCGUUGAAUGGAGUUUAUCAUG [C5A G11U A21C C54U C57A C87U] | -1.42 |
| GGAUGUUCUCGGUCUAACUAAAAAGACAAAUCUGCCACAAAGCUUGAGAGCAUCUUCGGAUGCAGAGGCGGCAGACUUCGGUGGCGCGAUAGCGCCAACGUUGUCAACUAUGAUACACAACACGCGUGCUCCGUUGAAUGGUGUUUAUCAUG [C5G A12G A19U C75A C103G C114U G117A A121C A142U] | ≤ -4.2 |
| GGAUAGUCUCGAUCUAACAAAAAAGACUAAUCUGCCACAAAGCUUGAGAGCCUCUUCGGAUGCAGAGGCGGCAGCCUUCGGUGCCGCGAUAGCGCCAACGUUCUCAACUGUGACACGCAAAACGCGUGCUCCGUUGAAUGGAGUUUAUCAUG [C5A U6G A28U A52C G84C A110G] | ≤ -4.2 |
| GGAUGUUCUCGAUCUAGCAAAAAAGACAAAUUUGCCACAAAGCUUGAGCGCAUUGUCGGAUGCAGAGGCGGCAGCCUUCGGUGGCGCCAUAGCGCAAACGUUCUCAACUAUGACACGCAAAACGCGUGCUCCGUUGAAUGGAGUUUAUCAUG [C5G A17G C32U A49C C54U U55G G88C C96A] | ≤ -4.2 |
| GGAUGUUCUCGAUCUAACAAUAAAGACAAAUCUGCCACAAAGCUUGAGAGCAUCUUCGAAUGCAGAGGCGGCAGCCUUCGGUGGCGCGAUAGCGCCAACGUUCUCAACUAUGACACGCAAAACGCGUGCUCCGUUGAAUGGAGUUUAUCAUG [C5G A21U G59A] | -0.0281 |
| GGAUGUUCUCGGUCUAACAAAAAAGACAAAUCUGCCACAAAGCUUGAGAGCAUCUUCGGAUGUAGAGGCGGCAGCCUUCGGUGCCGCGAUAGCGCUAACGUUCUCAACUAUGACACGCAAAACGCGUGCUCCGUUGAAUGGAGUUUAUCAUG [C5G A12G C63U G84C C96U] | ≤ -4.2 |
| GGAUAUUCUCGAUCUAACAAAAAAGACAAAUCUGCCACAAAGCUUGAGAGCAUCUUCGGAUGCAGAGCCGGCAGCCUUCCGUGGGGCGAUAGCGCCAACGUUCUCAACUAUGACACGCAAAACGCGUGCUCCGUUGAGUGGAGUUUAUCAUG [C5A G68C G80C C85G A138G] | ≤ -4.2 |
| GGAUAUUCUCCAUCUAACAAAAAAGACAAAUCUGCCACAAAGCUUGAGAUCAUCUUCCGAUGCAGAGGCGGCAGCCUUCGGUGGAGCGAUAGCGCCAACGUUCUCAACUAUGACACGCAAAACGCGUGCUCCGUUGAAUGGAGUUUAUCAUG [C5A G11C G50U G58C C85A] | -2.8 |
| GGAUGUUCUCGAUCUAACAAUAAAGAUAAAUCUGCCACAAAGCUUAAGAGCAUCUUCGGAUGCAGAGGCGGCAGCCUUCGGUGGCGCGAUAGCCCCAACGUUCUGAACUAUGACACGCAAAACGCAUGCUCCGUUGAAUGGAGUUUAUCAUG [C5G A21U C27U G46A G94C C105G G126A] | ≤ -4.2 |
| GGAUAUUCUCGAUCUAACAAAAAAGACAAAUCUGCCACAAAGCUUGAGAGCAACUUCGGAUGCAGAGGCGGCAGCCUUCGGUGGCGCGAUAGUGCCAACGUUCUCAACUAUGACACGCAAAACGAGUGCUCCGUUGAAUGGAGUUUAUCAUA [C5A U53A C93U C125A G152A] | -4.17 |
| GGAUAUUCUCGAUCUAACAAAAAAGACAAAUCUACCACAAAGCUUGAGAGCAUCUUCGGAUGCAGAGGCGGCAGCCUUCGGUGGCGCGAUAGCGCCAACGUUCUCAACUAUGACACGCAAAACGCGUGCUCCGUUGAAUGGAGUUUAUCAUG [C5A G34A] | 0.15 |
| GGAUAUUCUCGAUCUAACAAAAAAGACAAAUCUGCCACAAAGCUUGAGAGCAUCUUCGGAUGCAGAGGCGGCAGCCUUCGGUGGCGCGAUAGCGCAAACGUUCUCAACUAUGACACGCAAAACGCGUGCUCCGUUGAAUGGACUUUAUCAUG [C5A C96A G143C] | -3.53 |
